Measurements as given in patent publication US20090123371A1.

Target: EphA2 receptor tyrosine kinase (human) (UniProt P29317)
Assay: cell-based or functional assay

Substance: DT390-ephrinA1 (from UniProt P00588 33-422)
- cell proliferation assay, U-251 MG GBM cells: 15 nM
